Results reported in US20210130452A1 (Merck KGaA, published 2021).
Changes are numbered by the printed parent chain. Like-named read-outs stand apart in the source and are kept apart here.

B1: IL17MS3038 (VHH)
VHH: EVQLVESGGGLVQAGGSLRLSCAASGRTYDAVGWLRQAPGKEREFVAAISGSGDDTYYADSVKGRFTISKDNAGITMYLQMNSLKPEDTAVYYCATRRGLYYVWDSNDYENWGQGTQVTVSS
notes: variant of IL17MS13E02; Kabat numbering
B2: IL17MS3039 (VHH)
VHH: B1 VHH with V32M, M77V
notes: as for B1
B3: 11C08 (VHH)
VHH: EVQLVESGGGLVQAGGSLRLSCAASGVIFRLNAMGWYRAAPGKQRELVAIIVNGGSTNYADSVKGRFTISRDSAKNAVYLQMNSLKPEDTAVYYCYYNIPGDVYWGQGTQVTVSS
notes: Class 4
B4: 03C07 (VHH)
VHH: EVQLVESGGGLVQAGGSLRLSCAASGFTFDDYAIGWFRQAPGKEREAVSCFSSSDGSIYYADSVKGRFTISSDNAKNTVYLQMNSLKPEDTAVYYCAGGGGSYYYTQLNYCYDMDYWGKGTQVTVSS
notes: Class 2
B5: 13E05 (VHH)
VHH: EVQLVESGGGKVQAGDSLTLSCVASGGTFSNYAAWFRQAPGKDRRELVVSIFRTGSITYTADSVKGRFTASRVNTKNTVYLQMNSLKPEDTAVYYCASAYNPGVGYDYWGQGTQVTVSS
notes: Class 4
B6: IL17MS3043 (VHH)
VHH: EVQLVESGGGSVQPGGSLRLSCAASGRANSINWFGWFRQTPGKEREFVAGIRWSDAYTEYANSVKGRFTISRDNSKNTVYLQMDSLRPEDTAVYYCVLDLSTVRYWGQGTLVTVSS
notes: variant of IL17MS13B03; Kabat numbering
B7: IL17MS3044 (VHH)
VHH: B6 VHH with S11L, G16D, Y80D
notes: as for B6
B8: IL17MS3048 (VHH)
VHH: B6 VHH with G16D, Y80D, D84N
notes: as for B6
B9: IL17MS3050 (VHH)
VHH: B6 VHH with Y80D
notes: as for B6
B10: IL17MS3046 (VHH)
VHH: B6 VHH with G16D, N62A, Y80D
notes: as for B6
B11: IL17MS3045 (VHH)
VHH: B6 VHH with G16D, T40A, Y80D
notes: as for B6
B12: IL17MS3049 (VHH)
VHH: B6 VHH with G16D, T40A
notes: as for B6
B13: 02A08 (VHH)
VHH: EVQLVESGGGVVQPGGSLRLSCADSERSFSFNAMGWFRQAPGKEREFVAAISATGDDTYYADSVKGRFAISRDTARNTVYLQMNSLKPEDTAVYYCGARVNFDGTVSYTNDYAYWGQGTQVTVSS
notes: Class 2
B14: 02A08 (VHH)
VHH: B13 VHH
notes: Class 2
B15: 13B05 (VHH)
VHH: EVQLVESGGRLVQAGGSLRLSCAASGRTFTSYPMGWFRQAPGKEREFVAAISMSGDDTAYTDFVRGRFTISRDDARNTVYLHMTSLKPEDTAVYYCAARTSYDGTYDYIDDYSYWGQGTQVTVSS
notes: Class 4

Assays:
human IL-17F [1] = target: T1, human IL-17F (human, UniProt Q96PD4 31-163); test: AlphaScreen hIL-17F-IL-17RC; vs IL17MS13E02
T1 construct: made in Hek293 cells (GenBank AF384857); also called hIL-17F; hIL17F
T1 sequence: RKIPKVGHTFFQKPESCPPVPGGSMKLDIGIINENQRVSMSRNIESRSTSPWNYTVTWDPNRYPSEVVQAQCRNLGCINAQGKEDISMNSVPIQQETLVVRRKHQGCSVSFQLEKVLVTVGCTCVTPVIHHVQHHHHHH

[2] = target: T2, human IL-17A/F heterodimer (human, UniProt Q16552 24-155; Q96PD4 31-163, limits assumed); test: SPR (Biacore) off-rate
T2 construct: bought, made in E. coli (R&D Systems 5194-IL/CF); also called hIL-17A/F; hIL17A/F

human IL-17A [3] = target: T3, human IL-17A (human, UniProt Q16552 24-155); test: SPR (Biacore) off-rate
T3 construct: secreted form made in Hek293 cells (GenBank U32659); also called hIL-17A; hIL17A
T3 sequence (Q16552 other isoform, or with tags, fused parts or gaps): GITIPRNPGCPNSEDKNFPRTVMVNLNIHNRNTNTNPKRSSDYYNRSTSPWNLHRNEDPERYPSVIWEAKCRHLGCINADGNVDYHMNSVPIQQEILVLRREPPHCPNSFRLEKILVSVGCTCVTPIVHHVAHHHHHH

human IL-17F [4] = target: T1, human IL-17F; test: SPR (Biacore) off-rate
mouse IL-17F = target: T4, mouse IL-17F (mouse, UniProt Q7TNI7 29-161); test: ELISA, coated IL-17F;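 note: binding ELISA on coated antigen from various species, with bound Nanobodies revealed by an HRP-linked anti-myc antibody and esTMB substrate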
T4 sequence (looked up): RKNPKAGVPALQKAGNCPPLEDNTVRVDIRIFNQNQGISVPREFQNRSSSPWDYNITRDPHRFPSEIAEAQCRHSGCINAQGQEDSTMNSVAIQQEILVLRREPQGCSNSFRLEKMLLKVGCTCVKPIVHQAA
Description: (§1) Binding of a selected panel of anti-IL-17 Nanobodies to IL-17 of other species was assessed using a binding ELISA. […] HRP (horseradish peroxidase) conjugated anti-myc (Serotec, MCA 2200P) was used for detection using esTMB as substrate.

rat IL-17F = target: T5, rat IL-17F (rat, UniProt Q5BJ95 29-161); test: ELISA, coated IL-17F;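 note: binding ELISA on coated antigen from various species, with bound Nanobodies revealed by an HRP-linked anti-myc antibody and esTMB substrate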
T5 sequence (looked up): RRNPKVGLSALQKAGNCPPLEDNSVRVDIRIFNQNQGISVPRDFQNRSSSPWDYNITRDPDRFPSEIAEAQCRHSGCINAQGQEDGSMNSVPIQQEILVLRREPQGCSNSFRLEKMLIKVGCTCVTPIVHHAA
Description: as §1

human IL-17A [5] = target: T6, human IL-17A (human, UniProt Q16552 24-155); test: SPR, IL-17A-Nanobody complex over captured IL-17RA
T6 construct: secreted form (GenBank U32659) expressed in Hek293 with C-terminal 6-His; also called hIL-17A; IL-17A-6HIS
T6 sequence (Q16552 other isoform, or with tags, fused parts or gaps): as the sequence (Q16552 other isoform, or with tags, fused parts or gaps) above
Excerpt: The receptor (IL-17RA or IL-17RC) was captured via its human Fc-tail by an anti-human IgG-Fc antibody coated on the chip.

guinea pig IL-17A = guinea pig IL-17A (guinea pig); test: ELISA, coated IL-17A
Description: as §1

human IL-17A [6] = target: T6, human IL-17A; test: ELISA, coated IL-17A
Description: as §1

marmoset IL-17A = target: T7, marmoset IL-17A (marmoset, IL-17A is a disulfide-linked homodimer. One chain is given.); test: ELISA, coated IL-17A
T7 chain: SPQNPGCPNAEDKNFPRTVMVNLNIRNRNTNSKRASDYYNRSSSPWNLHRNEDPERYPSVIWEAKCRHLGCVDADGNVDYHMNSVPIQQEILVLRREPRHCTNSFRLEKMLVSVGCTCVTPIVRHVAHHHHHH
Description: as §1

rat IL-17A [7] = target: T8, rat IL-17A (rat, UniProt Q61453 18-150, limits assumed); test: ELISA, coated IL-17A
T8 sequence (looked up): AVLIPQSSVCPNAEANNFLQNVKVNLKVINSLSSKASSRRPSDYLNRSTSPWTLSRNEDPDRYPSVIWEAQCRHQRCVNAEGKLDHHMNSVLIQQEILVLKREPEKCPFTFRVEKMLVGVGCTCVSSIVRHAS
Description: as §1

mouse IL-17A [8] = target: T9, mouse IL-17A (mouse, UniProt Q62386 26-158); test: ELISA, coated IL-17A
T9 sequence (looked up): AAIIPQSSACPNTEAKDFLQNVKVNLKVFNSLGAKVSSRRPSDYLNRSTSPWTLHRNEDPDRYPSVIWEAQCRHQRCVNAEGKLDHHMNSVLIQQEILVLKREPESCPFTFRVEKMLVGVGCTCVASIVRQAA
Description: as §1

[9] = target: T2, human IL-17A/F heterodimer; test: SPR (Biacore) off-rate; remark: listed apart in the source
human IL-17A [10] = target: T3, human IL-17A; test: SPR (Biacore) off-rate; remark: listed apart in the source
human IL-17F [11] = target: T1, human IL-17F; test: SPR (Biacore) off-rate; remark: listed apart in the source
human IL-17C = target: T10, human IL-17C (human, UniProt Q9P0M4 19-197); test: SPR, cytokine on chip
T10 construct: expressed in E. coli; also called hIL-17C
T10 sequence (looked up): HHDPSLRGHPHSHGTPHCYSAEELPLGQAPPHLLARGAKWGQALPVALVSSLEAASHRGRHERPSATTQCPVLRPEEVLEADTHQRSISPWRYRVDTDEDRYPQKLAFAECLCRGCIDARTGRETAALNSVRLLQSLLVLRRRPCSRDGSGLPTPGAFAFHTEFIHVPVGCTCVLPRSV
Excerpt: (§2) Human IL-17B, IL-17C, IL-17D or IL-17E were all expressed in E. coli, and covalently bound to a CM sensor chip surface via amine coupling using EDC/NHS for activation and HCl for deactivation.
(§3) Next, binding buffer was sent over the chip at the same flow rate to allow spontaneous dissociation of bound Nanobody or antibody.

human IL-17B = target: T11, human IL-17B (human, UniProt Q9UHF5 21-180); test: SPR, cytokine on chip
T11 construct: expressed in E. coli; also called hIL-17B
T11 sequence (looked up): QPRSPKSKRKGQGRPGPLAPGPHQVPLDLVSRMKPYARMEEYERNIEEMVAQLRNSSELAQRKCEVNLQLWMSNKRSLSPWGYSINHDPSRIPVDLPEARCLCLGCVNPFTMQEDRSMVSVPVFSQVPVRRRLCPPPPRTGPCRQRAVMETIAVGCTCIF
Excerpt: as §2, §3

human IL-17D = target: T12, human IL-17D (human, UniProt Q8TAD2 18-202, limits assumed); test: SPR, cytokine on chip
T12 construct: expressed in E. coli; also called hIL-17D
T12 sequence (looked up): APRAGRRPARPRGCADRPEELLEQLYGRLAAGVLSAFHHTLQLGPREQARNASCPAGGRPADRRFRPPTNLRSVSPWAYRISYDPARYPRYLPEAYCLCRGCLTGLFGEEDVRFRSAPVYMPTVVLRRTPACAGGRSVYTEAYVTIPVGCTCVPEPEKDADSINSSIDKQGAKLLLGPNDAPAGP
Excerpt: as §2, §3

human IL-17E = target: T13, human IL-17E (human, UniProt Q9H293 33-177); test: SPR, cytokine on chip
T13 construct: expressed in E. coli; also called hIL-17E
T13 sequence (looked up): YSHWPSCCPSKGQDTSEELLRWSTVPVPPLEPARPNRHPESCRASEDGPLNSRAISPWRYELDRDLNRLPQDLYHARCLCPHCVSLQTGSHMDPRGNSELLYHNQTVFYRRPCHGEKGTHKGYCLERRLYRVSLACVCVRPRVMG
Excerpt: as §2, §3

rat IL-17A [12] = target: T14, rat IL-17A (rat, UniProt Q61453 18-150, limits assumed); test: binding ELISA
T14 construct: made in E. coli, bought
T14 sequence (looked up): T8 sequence (looked up)
Description: as §1

mouse IL-17A [13] = target: T15, mouse IL-17A (mouse, UniProt Q62386 26-158); test: binding ELISA
T15 sequence (looked up): T9 sequence (looked up)
Description: as §1

T2 sequence (Q16552 24-155 limits assumed, chain 1 of 2, one chain of several): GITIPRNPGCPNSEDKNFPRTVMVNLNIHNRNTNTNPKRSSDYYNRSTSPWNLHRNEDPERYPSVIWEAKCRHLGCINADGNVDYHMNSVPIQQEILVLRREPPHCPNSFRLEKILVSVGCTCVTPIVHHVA

Row | Binder | OD (rat IL-17F) | % Biacore binding (IL-17A-NB)-IL-17RA (human IL-17A [5]) | OD (guinea pig IL-17A) | OD (human IL-17A [6]) | OD (marmoset IL-17A) | OD (rat IL-17A [7]) | OD (mouse IL-17A [8]) | koff [9] | koff (human IL-17A [10]) | koff (human IL-17F [11]) | other results
1 | B1 | – | – | – | – | – | – | – | – | – | – | IC50 fold difference vs WT (human IL-17F [1]): 3.2 fold; koff [2]: 6.82e-05 s⁻¹; koff (human IL-17A [3]): 0.000225 s⁻¹; koff (human IL-17F [4]): 0.0101 s⁻¹
2 | B2 | – | – | – | – | – | – | – | – | – | – | IC50 fold difference vs WT (human IL-17F [1]): 1.25 fold; koff [2]: 4.03e-05 s⁻¹; koff (human IL-17A [3]): 0.00021 s⁻¹; koff (human IL-17F [4]): 0.00515 s⁻¹
3 | B3 | 0.0005 OD | 3.25% | 0.002 OD | 1.71 OD | 0.671 OD | 0.002 OD | -0.005 OD | – | – | – | OD (mouse IL-17F): -0.0025 OD
4 | B4 | 0.0015 OD | -0.08% | 0.004 OD | 1.7 OD | 1.7 OD | 0.003 OD | -0.004 OD | – | – | – | OD (mouse IL-17F): 0.0005 OD
5 | B5 | 0.0025 OD | 0.54% | 0.006 OD | 1.96 OD | 1.89 OD | 0.003 OD | 0.004 OD | – | – | – | OD (mouse IL-17F): 0.0005 OD
6 | B6 | – | – | – | – | – | – | – | 0.000585 s⁻¹ | 0.000276 s⁻¹ | 0.00811 s⁻¹ | –
7 | B7 | – | – | – | – | – | – | – | 0.000253 s⁻¹ | 0.000212 s⁻¹ | 0.00776 s⁻¹ | –
8 | B8 | – | – | – | – | – | – | – | 0.000665 s⁻¹ | 0.000295 s⁻¹ | 0.00874 s⁻¹ | –
9 | B9 | – | – | – | – | – | – | – | 0.000575 s⁻¹ | 0.000267 s⁻¹ | 0.00855 s⁻¹ | –
10 | B10 | – | – | – | – | – | – | – | 0.000515 s⁻¹ | 0.000281 s⁻¹ | 0.00848 s⁻¹ | –
11 | B11 | – | – | – | – | – | – | – | 0.000616 s⁻¹ | 0.00027 s⁻¹ | 0.00794 s⁻¹ | –
12 | B12 | – | – | – | – | – | – | – | 0.000248 s⁻¹ | 0.00015 s⁻¹ | 0.00757 s⁻¹ | –
13 | B13 | 0.0035 OD | 0.46% | 0.002 OD | 1.95 OD | 1.95 OD | 0.002 OD | -0.001 OD | – | – | – | –
14 | B14 | – | – | – | – | – | – | – | – | – | – | binding result (human IL-17C): no binding; binding result (human IL-17B): no binding; binding result (human IL-17D): no binding; binding result (human IL-17E): no binding; binding result (rat IL-17A [12]): no binding (tested: 250 nM); binding result (mouse IL-17A [13]): no binding (tested: 250 nM)
15 | B15 | 0.0095 OD | -0.89% | 0.001 OD | 1.82 OD | 1.91 OD | 0.003 OD | -0.006 OD | – | – | – | OD (mouse IL-17F): 0.0205 OD
